We go through seven molecules from paper PMC9935876, “Structure of the planar cell polarity cadherins Fat4 and Dachsous1” (Nature Communications, 2023).

The target of test [1] is Drosophila Ft(EC1–4), phosphorylated (Drosophila). As to the kind of experiment: ITC; fly Ft(EC1–4) at ~50 μM and Ds(EC1–4) at ~300 μM, unmodified or phosphorylated with Fj; same conditions as for the human proteins (20 °C); one set of sites.
In test [2] the target is Phosphorylated Drosophila Ft(EC1-4) (Drosophila) (UniProt P33450). In words: ITC; MicroCal ITC200; fly Ft(EC1-4) ~50 µM, fly Ds(EC1-4) ~300 µM; proteins phosphorylated with Fj as needed; 20 °C; one set of sites.
The target in a further test is CDH23 EC1-EC2 (UniProt Q99PF4). As to conditions: cited from earlier work.
Test [3] addresses Phosphorylated Drosophila Ft(EC1-4) (Drosophila) (UniProt P33450). In words: ITC; MicroCal ITC200; fly Ft(EC1-4) ~50 µM and Ds(EC1-4) ~300 µM, unmodified or phosphorylated with Fj; same conditions as for the human proteins (20 °C); fitted with one set of sites; two independent experiments.
A further test concerns the target T1, Human Fat4(EC1-4) (human, UniProt Q6V0I7 43-475).
T1 construct: human Fat4, extracellular cadherin domains EC1-EC4, aa43-475; A 3C protease site stands between the protein and the C-terminal BAP-tag and His6; also called WT
T1 sequence: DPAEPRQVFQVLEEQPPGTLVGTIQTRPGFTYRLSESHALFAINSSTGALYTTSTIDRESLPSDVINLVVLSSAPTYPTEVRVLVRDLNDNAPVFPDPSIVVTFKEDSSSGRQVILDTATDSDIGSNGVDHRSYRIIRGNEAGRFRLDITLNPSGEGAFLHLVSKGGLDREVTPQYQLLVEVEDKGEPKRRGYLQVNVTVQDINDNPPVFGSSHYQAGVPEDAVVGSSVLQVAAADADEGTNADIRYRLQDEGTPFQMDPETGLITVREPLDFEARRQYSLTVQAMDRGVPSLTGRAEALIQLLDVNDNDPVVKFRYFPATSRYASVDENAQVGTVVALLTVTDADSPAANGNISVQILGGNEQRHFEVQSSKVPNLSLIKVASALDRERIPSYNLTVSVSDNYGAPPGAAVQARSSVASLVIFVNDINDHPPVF
As to the kind of experiment: ITC; MicroCal ITC200; Fat4 constructs 30 µM in the sample cell, Dchs1 constructs 300 µM as titrants; 20 °C; one set of sites. As to conditions: both partners purified.

Several values for one entry are separate records, joined by “and”; a condition that tells them apart may be missing. Equal values may be shown once.

Phosphorylated Drosophila Ft(EC1-4) (Drosophila), sequence (P33450 36-5147): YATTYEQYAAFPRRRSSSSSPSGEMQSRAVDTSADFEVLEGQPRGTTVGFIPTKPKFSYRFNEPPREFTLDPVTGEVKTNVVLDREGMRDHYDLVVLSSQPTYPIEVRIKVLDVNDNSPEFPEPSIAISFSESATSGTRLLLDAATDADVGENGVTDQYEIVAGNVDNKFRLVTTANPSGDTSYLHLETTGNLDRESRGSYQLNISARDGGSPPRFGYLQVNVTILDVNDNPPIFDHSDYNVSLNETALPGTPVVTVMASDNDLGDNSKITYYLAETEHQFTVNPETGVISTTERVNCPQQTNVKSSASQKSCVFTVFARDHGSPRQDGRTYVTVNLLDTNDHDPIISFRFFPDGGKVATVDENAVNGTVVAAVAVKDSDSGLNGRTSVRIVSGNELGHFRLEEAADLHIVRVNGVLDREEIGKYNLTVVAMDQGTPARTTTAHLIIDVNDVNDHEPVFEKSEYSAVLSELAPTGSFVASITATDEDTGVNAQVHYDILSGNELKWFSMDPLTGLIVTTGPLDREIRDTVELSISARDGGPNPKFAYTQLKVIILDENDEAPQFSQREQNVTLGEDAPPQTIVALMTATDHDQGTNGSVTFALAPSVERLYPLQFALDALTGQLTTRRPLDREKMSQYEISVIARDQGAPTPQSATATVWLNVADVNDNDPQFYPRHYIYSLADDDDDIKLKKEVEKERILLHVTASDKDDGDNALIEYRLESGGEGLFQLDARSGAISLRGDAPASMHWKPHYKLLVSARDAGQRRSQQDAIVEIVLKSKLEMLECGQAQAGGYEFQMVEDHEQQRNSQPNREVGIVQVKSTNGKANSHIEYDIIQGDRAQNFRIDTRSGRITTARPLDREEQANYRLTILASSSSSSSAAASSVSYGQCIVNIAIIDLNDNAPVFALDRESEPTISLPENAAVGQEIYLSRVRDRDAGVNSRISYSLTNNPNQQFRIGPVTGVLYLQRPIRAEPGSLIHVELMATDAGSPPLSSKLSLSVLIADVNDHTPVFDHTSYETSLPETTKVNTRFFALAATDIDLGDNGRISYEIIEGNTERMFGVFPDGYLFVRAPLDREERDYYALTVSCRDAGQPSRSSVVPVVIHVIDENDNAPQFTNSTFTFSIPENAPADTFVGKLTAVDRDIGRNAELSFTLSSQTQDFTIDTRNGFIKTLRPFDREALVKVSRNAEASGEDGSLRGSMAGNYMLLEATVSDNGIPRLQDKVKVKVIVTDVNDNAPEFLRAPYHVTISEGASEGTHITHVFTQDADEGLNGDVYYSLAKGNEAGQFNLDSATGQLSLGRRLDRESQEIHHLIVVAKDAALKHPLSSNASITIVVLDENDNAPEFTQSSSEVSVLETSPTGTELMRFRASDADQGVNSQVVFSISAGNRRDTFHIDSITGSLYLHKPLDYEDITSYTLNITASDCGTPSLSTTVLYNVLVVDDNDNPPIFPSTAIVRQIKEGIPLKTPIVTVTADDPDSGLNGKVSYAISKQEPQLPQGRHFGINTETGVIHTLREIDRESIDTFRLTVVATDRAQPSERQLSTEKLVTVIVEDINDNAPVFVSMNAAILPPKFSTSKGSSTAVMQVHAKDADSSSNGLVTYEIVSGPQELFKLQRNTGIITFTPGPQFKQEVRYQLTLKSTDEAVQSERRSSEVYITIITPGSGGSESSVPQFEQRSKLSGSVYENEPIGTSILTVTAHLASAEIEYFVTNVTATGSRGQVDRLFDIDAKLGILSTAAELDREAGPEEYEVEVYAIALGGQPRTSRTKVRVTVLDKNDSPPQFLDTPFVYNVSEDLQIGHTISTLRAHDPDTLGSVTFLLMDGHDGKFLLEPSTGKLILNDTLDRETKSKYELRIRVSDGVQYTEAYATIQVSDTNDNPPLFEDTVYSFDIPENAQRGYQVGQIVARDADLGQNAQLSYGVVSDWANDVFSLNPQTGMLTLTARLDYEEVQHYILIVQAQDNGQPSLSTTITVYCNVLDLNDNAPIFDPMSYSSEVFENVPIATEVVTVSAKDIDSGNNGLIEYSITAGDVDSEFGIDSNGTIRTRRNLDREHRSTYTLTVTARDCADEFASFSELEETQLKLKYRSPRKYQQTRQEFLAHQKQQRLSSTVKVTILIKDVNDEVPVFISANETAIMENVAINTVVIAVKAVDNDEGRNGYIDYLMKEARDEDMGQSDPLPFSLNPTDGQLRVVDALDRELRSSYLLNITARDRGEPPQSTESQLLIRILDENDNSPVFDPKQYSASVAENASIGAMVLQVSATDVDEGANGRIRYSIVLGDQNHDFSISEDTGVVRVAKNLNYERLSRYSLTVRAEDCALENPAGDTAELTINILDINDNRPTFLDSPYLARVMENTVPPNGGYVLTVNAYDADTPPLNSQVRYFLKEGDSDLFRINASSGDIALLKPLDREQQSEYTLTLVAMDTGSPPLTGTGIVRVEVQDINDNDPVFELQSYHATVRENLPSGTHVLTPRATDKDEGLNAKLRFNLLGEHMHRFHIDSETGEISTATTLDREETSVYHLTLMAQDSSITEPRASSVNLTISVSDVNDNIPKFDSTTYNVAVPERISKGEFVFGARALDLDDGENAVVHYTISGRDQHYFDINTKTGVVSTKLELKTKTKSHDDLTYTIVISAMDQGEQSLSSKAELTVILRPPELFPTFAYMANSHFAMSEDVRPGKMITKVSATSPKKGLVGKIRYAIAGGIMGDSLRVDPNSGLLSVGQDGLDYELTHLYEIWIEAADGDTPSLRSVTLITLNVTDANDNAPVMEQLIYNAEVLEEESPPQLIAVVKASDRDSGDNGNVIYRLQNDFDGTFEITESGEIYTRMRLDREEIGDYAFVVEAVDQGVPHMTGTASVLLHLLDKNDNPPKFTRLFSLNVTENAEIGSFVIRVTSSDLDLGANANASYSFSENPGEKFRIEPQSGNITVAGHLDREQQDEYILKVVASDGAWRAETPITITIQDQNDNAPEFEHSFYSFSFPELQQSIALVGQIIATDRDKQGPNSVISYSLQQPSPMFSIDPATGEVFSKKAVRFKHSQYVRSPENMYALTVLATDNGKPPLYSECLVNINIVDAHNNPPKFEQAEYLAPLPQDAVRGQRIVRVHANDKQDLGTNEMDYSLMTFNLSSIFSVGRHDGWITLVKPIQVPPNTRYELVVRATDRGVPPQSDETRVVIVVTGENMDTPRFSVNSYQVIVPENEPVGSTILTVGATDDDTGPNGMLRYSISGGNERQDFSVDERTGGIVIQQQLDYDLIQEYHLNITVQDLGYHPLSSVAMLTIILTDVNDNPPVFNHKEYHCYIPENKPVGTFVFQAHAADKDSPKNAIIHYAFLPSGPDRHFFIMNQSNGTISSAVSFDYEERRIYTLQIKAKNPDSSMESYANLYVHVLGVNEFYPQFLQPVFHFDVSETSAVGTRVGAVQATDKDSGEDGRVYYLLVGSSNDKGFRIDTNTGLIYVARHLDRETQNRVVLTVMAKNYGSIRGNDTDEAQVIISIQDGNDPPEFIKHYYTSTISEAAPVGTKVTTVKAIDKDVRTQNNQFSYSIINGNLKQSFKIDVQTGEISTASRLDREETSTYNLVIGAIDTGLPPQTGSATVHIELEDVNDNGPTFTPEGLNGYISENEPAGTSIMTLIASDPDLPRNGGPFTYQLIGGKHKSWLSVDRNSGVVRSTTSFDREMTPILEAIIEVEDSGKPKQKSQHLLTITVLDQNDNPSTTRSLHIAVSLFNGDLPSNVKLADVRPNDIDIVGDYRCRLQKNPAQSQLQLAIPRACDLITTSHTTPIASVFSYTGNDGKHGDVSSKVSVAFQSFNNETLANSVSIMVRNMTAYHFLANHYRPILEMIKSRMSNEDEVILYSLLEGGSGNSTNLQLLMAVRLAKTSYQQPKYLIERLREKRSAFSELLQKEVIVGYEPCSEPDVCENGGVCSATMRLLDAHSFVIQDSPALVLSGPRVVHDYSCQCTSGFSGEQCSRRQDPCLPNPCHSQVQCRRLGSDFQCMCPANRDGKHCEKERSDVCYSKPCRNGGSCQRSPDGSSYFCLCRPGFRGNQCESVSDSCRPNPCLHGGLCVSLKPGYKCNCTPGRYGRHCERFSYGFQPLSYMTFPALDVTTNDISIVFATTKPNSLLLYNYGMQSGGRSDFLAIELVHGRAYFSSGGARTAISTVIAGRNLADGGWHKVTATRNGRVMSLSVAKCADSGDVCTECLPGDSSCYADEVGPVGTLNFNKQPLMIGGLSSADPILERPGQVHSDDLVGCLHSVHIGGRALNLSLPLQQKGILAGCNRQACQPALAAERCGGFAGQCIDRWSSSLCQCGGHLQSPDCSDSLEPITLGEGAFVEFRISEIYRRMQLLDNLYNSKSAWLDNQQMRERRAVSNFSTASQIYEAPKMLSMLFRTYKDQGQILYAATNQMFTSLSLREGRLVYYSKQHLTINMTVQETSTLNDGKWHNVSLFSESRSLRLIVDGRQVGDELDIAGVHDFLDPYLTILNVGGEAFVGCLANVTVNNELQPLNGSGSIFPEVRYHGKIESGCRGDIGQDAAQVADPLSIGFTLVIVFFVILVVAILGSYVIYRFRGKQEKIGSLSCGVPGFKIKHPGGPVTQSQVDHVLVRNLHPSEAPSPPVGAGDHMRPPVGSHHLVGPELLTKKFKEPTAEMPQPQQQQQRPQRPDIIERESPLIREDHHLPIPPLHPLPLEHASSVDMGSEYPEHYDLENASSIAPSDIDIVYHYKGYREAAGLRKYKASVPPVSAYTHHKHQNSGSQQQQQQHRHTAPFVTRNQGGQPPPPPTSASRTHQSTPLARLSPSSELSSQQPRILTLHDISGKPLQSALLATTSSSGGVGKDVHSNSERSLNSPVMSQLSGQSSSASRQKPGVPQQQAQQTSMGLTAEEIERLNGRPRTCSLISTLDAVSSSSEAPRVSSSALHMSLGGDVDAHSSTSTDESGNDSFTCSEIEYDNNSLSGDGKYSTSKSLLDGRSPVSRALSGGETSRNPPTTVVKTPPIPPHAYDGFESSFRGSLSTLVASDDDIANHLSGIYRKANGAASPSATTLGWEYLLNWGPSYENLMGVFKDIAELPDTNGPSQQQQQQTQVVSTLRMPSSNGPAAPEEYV

In test [1], “Drosophila Ds(EC1–4), unmodified (domain or fragment)” displayed a Kd of 4.58 µM. In test [2], “Drosophila Ds(EC1-4) (from UniProt Q24292 74-3556) (domain or fragment)” returned a stoichiometry N of 0.777 sites. Consider PCDH15 EC1-EC2 (from UniProt Q99PJ1), for which the Kd with CDH23 EC1-EC2 was 2.9 µM. The molecule “Phosphorylated Drosophila Ds(EC1-4) (from UniProt Q24292 74-3556) (domain or fragment)” had a stoichiometry N in test [2] of 0.751 sites. Also, the Kd in test [3] is 13.6 µM and 11.4 µM. Take “Drosophila Ds(EC1–4), phosphorylated (domain or fragment)”: the Kd in test [1] came out at 12.5 µM. In the case of “Drosophila Ds(EC1-4), unmodified (from UniProt Q24292 74-3556) (domain or fragment)”, the Kd in test [3] is 4.1 µM and 5.05 µM.

B1: Human Dchs1(EC1-3) (domain or fragment)
chain: DPQAGSLDLQIDEEQPAGTLIGDISAGLPAGTAAPLMYFISAQEGSGVGTDLAIDEHSGVVRTARVLDREQRDRYRFTAVTPDGATVEVTVRVADINDHAPAFPQARAALQVPEHTAFGTRYPLEPARDADAGRLGTQGYALSGDGAGETFRLETRPGPDGTPVPELVVTGELDRENRSHYMLQLEAYDGGSPPRRAQALLDVTLLDINDHAPAFNQSRYHAVVSESLAPGSPVLQVFASDADAGVNGAVTYEINRRQSEGDGPFSIDAHTGLLQLERPLDFEQRRVHELVVQARDGGAHPELGSAFVTVHVRDANDNQPSM
notes: human Dachsous1 (Dchs1), extracellular cadherin domains EC1-EC3, aa43-362; A 3C protease site stands between the protein and the C-terminal BAP-tag and His6
Turning to B1, in the test with Human Fat4(EC1-4), the “stoichiometry N” value was 0.978 ± 0.0137 sites.
